The supplement of paper PMC7125110
± gives the standard error. This sample holds only a part of the variants without activity.

B1: glmS ribozyme (parent)
chain: AUAAAAGCGCCAGAACUACAGAAAUGUAGUUGACGAGGAGGAGGUUUAUCGAAUUUUCGGCGGAUGCCUCCAAA

How the values were obtained:
Details in all cases: with glucosamine-6-phosphate
glucosamine-6-phosphate [1] = variants of: B1; assay: self-cleavage kobs at 160 uM GlcN6P; higher = faster cleavage; RNA array
In short: (§1)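 Glucosamine-6-phosphate, from 40 μM to 10 mM in HEPES/KCl/Mg(OAc)2 buffer, was flowed over sequenced MiSeq chips carrying barcoded ribozyme variants transcribed in situ by E. coli RNA polymerase. A hybridised Cy3 probe tracked the variants at 37 °C as tiles were imaged over ~14 h. kobs, kcat and KM were obtained by fitting normalised per-tile medians to exponential decays and then applying weighted Michaelis–Menten fits across concentrations.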

glucosamine-6-phosphate [2] = variants of: B1; assay: self-cleavage kobs at 640 uM GlcN6P; higher = faster cleavage; RNA array
In short: as §1

glucosamine-6-phosphate [3] = variants of: B1; assay: self-cleavage kobs at 2500 uM GlcN6P; higher = faster cleavage; RNA array
In short: as §1

glucosamine-6-phosphate [4] = variants of: B1; assay: self-cleavage kobs at 10000 uM GlcN6P; higher = faster cleavage; RNA array
In short: as §1

| Variant | self-cleavage kobs at 160 uM GlcN6P (glucosamine-6-phosphate [1]) [s⁻¹] | self-cleavage kobs at 640 uM GlcN6P (glucosamine-6-phosphate [2]) [s⁻¹] | self-cleavage kobs at 2500 uM GlcN6P (glucosamine-6-phosphate [3]) [s⁻¹] | self-cleavage kobs at 10000 uM GlcN6P (glucosamine-6-phosphate [4]) [s⁻¹] |
| --- | --- | --- | --- | --- |
| G7U G40U | < 1e-05 | < 1e-05 | < 1e-05 | < 1e-05 |
| G9C A14G G59U | < 1e-05 |  |  |  |
| G9C C10U G41A G43U | < 1e-05 | < 1e-05 |  |  |
| C8G G51A U55G | < 1e-05 | < 1e-05 |  |  |
| C11G A14U G35U C70G | 0.000125 ± 4.5e-05 | 0.000575 ± 0.0002 | 0.00022 ± 8.2e-05 | 0.000257 ± 5.4e-05 |
| C8G G13A U54A G62A | < 1e-05 | < 1e-05 |  |  |
| C8G C11G U54A | < 1e-05 |  | < 1e-05 |  |
| G7A G32U C34U | < 1e-05 |  |  |  |
| C10U U30C | < 1e-05 |  | < 1e-05 |  |
| C10A G32C G38C | < 1e-05 |  | < 1e-05 |  |
| C10A C34A G37A U46C C67G | < 1e-05 |  |  |  |
| G9U U31A U65G | < 1e-05 | < 1e-05 | < 1e-05 |  |
| G9A G32A G43C U56C C68U | < 1e-05 | < 1e-05 | < 1e-05 |  |
| C8G C70U | < 1e-05 | < 1e-05 | < 1e-05 | < 1e-05 |
| C8G A39U U69A | < 1e-05 |  |  |  |
| A6U C11A G13U | < 1e-05 |  |  |  |
| C8U G63A | < 1e-05 |  | < 1e-05 | < 1e-05 |
| G7U G41C A52G | < 1e-05 | < 1e-05 | < 1e-05 | < 1e-05 |
| G9U G40A A52U | < 1e-05 |  | < 1e-05 |  |
| C8U U56C | < 1e-05 | < 1e-05 | < 1e-05 | < 1e-05 |
| G7A G35A G51C | < 1e-05 |  | < 1e-05 |  |
| C8U A36U G40C U56A | < 1e-05 |  | < 1e-05 |  |
| C10A U30A | < 1e-05 | < 1e-05 | < 1e-05 | < 1e-05 |
| C10A G13U A15G G40U U46G | < 1e-05 | < 1e-05 | < 1e-05 |  |
| G9U C68G | < 1e-05 |  | < 1e-05 | < 1e-05 |

| Variant | self-cleavage kobs at 160 uM GlcN6P (glucosamine-6-phosphate [1]) [s⁻¹] | self-cleavage kobs at 640 uM GlcN6P (glucosamine-6-phosphate [2]) [s⁻¹] | self-cleavage kobs at 2500 uM GlcN6P (glucosamine-6-phosphate [3]) [s⁻¹] | self-cleavage kobs at 10000 uM GlcN6P (glucosamine-6-phosphate [4]) [s⁻¹] |
| --- | --- | --- | --- | --- |
| G9U C11U C34A G43U C61A C67G | < 1e-05 |  |  |  |
| C10A G35C C67U | < 1e-05 |  | < 1e-05 |  |
| C10U U31A U49G G62U C68U | < 1e-05 |  |  |  |
| C10A G13C C16U G51C | < 1e-05 |  |  |  |
| C10U U46C C70U | < 1e-05 |  |  |  |
| C10G C50G C67U | 9.87e-05 ± 2.3e-05 |  | 0.000267 ± 5.1e-05 |  |
| A6U G29A U54G | < 1e-05 |  |  |  |
| A6U A12C A53U | < 1e-05 | 3.14e-05 ± 1.3e-05 | 4.17e-05 ± 1.6e-05 |  |
| G9A C58A | < 1e-05 | < 1e-05 | < 1e-05 |  |
| C8A G59A | < 1e-05 | < 1e-05 | < 1e-05 | < 1e-05 |
| G7C A24U U46A C68U | < 1e-05 | < 1e-05 |  | < 1e-05 |
| A6U C10U | < 1e-05 |  | < 1e-05 |  |
| C10A U56C | < 1e-05 | < 1e-05 | < 1e-05 |  |
| C10U G37A G63A | < 1e-05 | < 1e-05 | < 1e-05 |  |
| G9U G40C G51A | < 1e-05 | < 1e-05 | < 1e-05 |  |
| C10A U30G A48U | < 1e-05 | < 1e-05 | < 1e-05 | < 1e-05 |
| C10U G43C U47C A52C U65C G66A C70G | < 1e-05 | < 1e-05 |  |  |
| C8G G38A | < 1e-05 | < 1e-05 | < 1e-05 | < 1e-05 |
| C10A A14U A52U C70G | 0.00038 ± 0.00011 | 0.000294 ± 7.4e-05 | 8.93e-05 ± 3.8e-05 |  |
| C11G G29U U69G | 0.000155 ± 3.5e-05 | 0.000133 ± 3.6e-05 |  |  |
| C10A C50G U65G | 0.000143 ± 2.6e-05 | 0.000121 ± 4.2e-05 | 4.21e-05 ± 1.9e-05 |  |
| C10U C11U G13A | < 1e-05 | < 1e-05 | < 1e-05 |  |
| C8A A12U C16G G41A C68A | < 1e-05 | < 1e-05 | < 1e-05 |  |
| G7A G38U G44C U49A A53U U56C | < 1e-05 |  |  |  |
| C8G A12U G63U | < 1e-05 | < 1e-05 | < 1e-05 |  |
